Measurements: patent US10246503B2, “Method of improving the pharmacokinetic profile of a therapeutic polypeptide and the use thereof” (BEIJING ANXINHUAIDE BIOTECH. CO., LTD, priority 2012, dated 2019)

Key:
[1] = analytical gel filtration (Superdex200), apparent molecular weight; format: physicochemical
Description: In the fusion protein of GLP-1(A8G/G22E)-Fn8-COL18NC1 described in example 4, the flexible unstructured linker between Fn8 and COL18NC1 contains six residues (GGGSGG; SEQ ID NO:89). To generate the flexible un-structured linkers with different lengths, we have synthesized the genes GLP-1(A8G/G22E/R36S)-Fn8-COL18NC1-20, GLP-1(A8G/G22E/R36S)-Fn8-COL18NC1-30, GLP-1(A8G/G22E/R36S)-Fn8-COL18NC1-54 and GLP-1(A8G/G22E/R36S)-Fn8-COL18NC1-60. In these genes, the length of the flexible unstructured polypeptide linker between Fn8 and COL18NC1 contained 20, 30, 54 and 60 residues, respectively. The protein sequences of GLP-1(A8G/G22E/R36S)-Fn8-COL18NC1-20, GLP-1(A8G/G22E/R36S)-Fn8-COL18NC1-30, GLP-1(A8G/G22E/R36S)-Fn8-COL18NC1-54 and GLP-1(A8G/G22E/R36S)-Fn8-COL18NC1-60 are listed as SEQ ID NO:8-11. The synthetic genes of GLP-1(A8G/G22E/R36S)-Fn8-COL18NC1-20, GLP-1(A8G/G22E/R36S)-Fn8-COL18NC1-30, GLP-1(A8G/G22E/R36S)-Fn8-COL18NC1-54 and GLP-1(A8G/G22E/R36S)-Fn8-COL18NC1-60 were grafted to the pET29b by NdeI and XhoI for protein expressions. The expression and purification of these fusion proteins were carried out using similar protocols described in example 3. To estimate the hydrodynamic radius and/or the Rg of the fusion proteins, the purified proteins were loaded on an analytical gel filtration column Superdex200 (GE Healthcare).
Moreover, the flexible unstructured linker between the therapeutic polypeptide and the scaffold protein may adjust the hydrodynamic radius and/or the Rg of the fusion molecule in a tunable manner.
The apparent molecular weights of the fusion proteins were estimated by use of an analytical gel filtration column Superdex-200 (GE Healthcare) mounted on the AKTA FPLC system (GE Healthcare). The purified fusion proteins GLP-1-Fn8, GLP-1-Fn8-COL18NC1, GLP-1(A8G/G22E/R36G)-Fn8-p246-COL18NC1 were loaded on the Superdex200 column. GLP-1-Fn8 is a fusion protein of GLP-1 and Fn8 and contains the first 144 amino acid residues of the fusion protein GLP-1-Fn8-COL18NC1 (SEQ ID NO:2). […] The genuine molecular weights for the fusion proteins GLP-1-Fn8 monomer, GLP-1-Fn8-COL18NC1 trimer, and GLP-1(A8G/G22E/R36G)-Fn8-p246-COL18NC1 trimer were ˜15 Kd, 65 Kd and 123Kd, respectively.

[2] = pharmacokinetics in cynomolgus monkeys, sandwich ELISA; format: in vivo; settings: subcutaneous, 5 nmol/kg
Method: The GLP-1 concentrations within the samples were examined by use of the sandwich ELISA method. The rabbit polyclonal antibody against human Fibronectin at the concentration of 3 ug/ml (Ab299, Abcam company) was coated on ELISA plate for 1 hour at room temperature. Then the plate was washed by PBST buffer three times and the wells were blocked by PBS with 10% FBS for 1 hour at room temperature. The plate was washed three times before the serum samples containing GLP-1 fusion proteins were added. The serum samples could be diluted to 20-10000 folds before use. The ELISA plate was incubated with the serum samples at room temperature for 1 hour and then washed by PBST buffer five times. Then mouse monoclonal against human GLP-1 peptide antibody (sc57510, Santa Cruz Biotechnology) at the concentration of 1 ug/ml in PBST buffer was added to the wells. The plate was washed extensively after incubation of 1 hour at room temperature. The secondary antibody, […] HRP conjugated antibody (Beijing ZSGB-Bio company, ZB 5301), was added into the wells and the color was developed using TMB (3,3′,5,5′-tetramethylbenzidine, BD Biosciences, Cat 555214). The plate reader (Bio-Rad microplate reader Model 680) was utilized to obtain the OD450 readings. This method has been calibrated using purified proteins first.
To further investigate the pharmacokinetics profiles for the GLP-1 containing fusion proteins generated using the method of the invention, the fusion protein GLP1(A8G/G22E/R36G)-Fn8-p246-COL18NC1 was administrated into the cynomolgus monkeys by subcutaneous injection. The fusion protein was administered on three cynomolgus monkeys at the dose of 5 nmol/kg. Blood samples were taken at various time points after injections such as 0-min, 2-hour, 4-hour, 6-hour, 8-hour, 24-hour, 48-hour, and daily until the 15th day. The serum samples were centrifuged and kept at −80° C. freezer. The concentrations of the fusion protein within the serum samples were examined by using the sandwich ELISA method described above. The pharmacokinetics profile of the fusion protein GLP1(A8G/G22E/R36G)-Fn8-p246-COL18NC1 in cynomolgus monkeys was shown in FIG. 8. The pharmacokinetics parameters were obtained by using the WinNonlin software (Table 5).

SD rats = test: toxicity in SD rats; format: in vivo
Description: The toxicity of GLP1(A8G/G22E/R36G)-Fn8-p246-COL18NC1 in SD rats was also examined.

cynomolgus monkeys = test: specific antibody against the fusion protein in monkey serum, ELISA; format: in vivo; settings: serum of three cynomolgus monkeys one month after dosing
Description: The serum samples of the cynomolgus monkeys receiving the fusion protein GLP1(A8G/G22E/R36G)-Fn8-p246-COL18NC1 were withdrawn one month after dosing to examine whether specific antibody against GLP1(A8G/G22E/R36G)-Fn8-p246-COL18NC1 has been generated.

B1: GLP1(A8G/G22E/R36G)-Fn8-p246-COL18NC1: GLP-1 mutant, Fn8, pCloud p246, COL18NC1 fusion; SEQ ID NO: 16 (protein)
chain: HGEGTFTSDVSSYLEEQAAKEFIAWLVKGGGSGGGSGGGSGGGSGGGSGSGGAVPPPTDLRFTNIGPDTMRVTWAPPPSIDLTNFLVRYSPVKNEEDVAELSISPSDNAVVLTNLLPGTEYVVSVSSVYEQHESTPLRGRQKTGGGGSGGGSGSGSESGSGGGSTSSGTGSETESPGSGSESGSGPSSAGSGSGSESGSGSGSSGPGSTGGSGSESGSGPGSSGTGGTATGSGSESGSGPGSSGPGSTGSGSGSESGSGSGSSGTGSTGGSGSESGSGPGSPRPGSTGTGSGSESGSGPGSSERGSAGGSGSESGSGTSESSASGSTGGSGSESGSGSESGSGSGSESGSGPESPGSGGSGSESGSGTSGSTGSGSESGSGGGSGGGSGGGASSGVRLWATRQAMLGQVHEVPEGWLIFVAEQEELYVRVQNGFRKVQLEARTPLPRG
apparent molecular weight [1]: ~550 Kd
AUCall ([2]; Monkey): 1267.8 µg·h/mL
CL/F ([2]; Monkey): 11.5 mL/day/kg
Cmax ([2]; Monkey): 8210 ng/mL
T½ ([2]; Monkey): 67.3 h
Vss ([2]; Monkey): 0.0516 L/kg
half life ([2]; cynomolgus monkeys): ~67 h
unacceptable adverse effects such as significant weight loss and fever (SD rats; repeated doses of 5 nmol/kg every three days for four weeks): did not induce unacceptable adverse effects
unacceptable adverse effects such as significant weight loss and fever (SD rats; single dose of 30 nmol/kg): did not induce unacceptable adverse effects
specific antibody against the fusion protein (cynomolgus monkeys): no specific antibody was induced
